Data as given in patent US20260284219A1, “ANTIBODY CONJUGATE, AND USES THEREOF” (Acepodia Biotechnologies, Ltd., priority 2024, published 2026).

Tests used:
[1] = molecular target: His-tagged human PDL1 recombinant protein (Homo sapiens, UniProt Q9NZQ7); experiment: Binding affinity ELISA on plates coated with PDL1; details: for EC50: N = 3; for EC50 of the conjugate relative to EC50 of atezolizumab: PDL1 binding; for PDL1 binding signal compared with atezolizumab: among the concentration range, signal at 450 nm
Sequence of His-tagged human PDL1 recombinant protein (Q9NZQ7 19-290): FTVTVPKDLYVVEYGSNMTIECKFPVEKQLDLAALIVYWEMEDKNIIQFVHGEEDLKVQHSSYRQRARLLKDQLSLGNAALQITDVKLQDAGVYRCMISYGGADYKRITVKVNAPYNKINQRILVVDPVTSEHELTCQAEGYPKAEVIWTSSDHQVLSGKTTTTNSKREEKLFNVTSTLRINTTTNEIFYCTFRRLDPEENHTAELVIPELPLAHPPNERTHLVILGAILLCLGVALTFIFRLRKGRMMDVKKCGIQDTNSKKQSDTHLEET
Experimental: The blocked His-tagged human PDL1 recombinant protein-coated white plate was then incubated with atezolizumab, atezolizumab-govitecan (DAR10), or the isotype control antibody at different concentrations at 37° C. for 1 hour. The unbound atezolizumab, atezolizumab-govitecan (DAR10), or the isotype control antibody was washed away with PBST.
The blocked His-tagged human PDL1 recombinant protein-coated white plate was then incubated with atezolizumab or atezolizumab-deruxtecan-vcMMAE (DAR 10) at different concentrations at 37° C. for 1 hour. The unbound atezolizumab or atezolizumab-deruxtecan-vcMMAE (DAR 10) was washed away with PBST.

[2] = Aggregation by size exclusion chromatography HPLC (SEC-HPLC); format: physicochemical; details: SEC-HPLC of DAR10 dual-payload antibody drug conjugates
[3] = tested on: human triple-negative breast cancer MDA-MB-231 cells; experiment: Cytotoxicity assay (CellTiter-Glo 2.0), MDA-MB-231; format: cell-based; details: for cytotoxicity against MDA-MB-231: atezolizumab conjugates, 0.01-500 nM for 6 days; for cancer cells killed compared with atezolizumab: MDA-MB-231, 6 days, FIG. 6B
Experimental: Each condition was performed in triplicate. On the harvesting day, the number of viable cells in each well were measured according to the CellTiter-Glo™ 2.0 Assay process.

| Substance | EC50 ([1]; Embodiment 2-3, FIG. 9) [nM] | EC50 of the conjugate relative to EC50 of atezolizumab [1] | PDL1 binding signal compared with atezolizumab [1] | protein aggregation [2] | cytotoxicity against MDA-MB-231 [3] | cancer cells killed compared with atezolizumab [3] [%] | EC50 ([1]; Embodiment 1-3, FIG. 5) [nM] | cytotoxicity against MDA-MB-231 ([3]; listed as PDP-PDL1 mab-govitecan) |
| --- | --- | --- | --- | --- | --- | --- | --- | --- |
| atezolizumab-deruxtecan-vcMMAE (DAR 10): Atezolizumab with 8 deruxtecan on cysteines and 2 vcMMAE on light-chain lysines (DAR10) | 1.56 | less than 2 times | no significant difference of signal detection | resistant to protein aggregation | better cytotoxicity | – | – | – |
| atezolizumab-govitecan (DAR8): Atezolizumab with 8 govitecan conjugated to cysteines by procedure (A) only (DAR8) | – | – | – | – | – | 25 | – | – |
| atezolizumab-govitecan (DAR10): Atezolizumab with 8 govitecan on light and heavy chain cysteines and 2 govitecan on light-chain lysines (DAR10) | – | less than 2 times | no significant difference of signal detection | resistant to protein aggregation | better cytotoxicity | 50 | 0.75 | exhibits cytotoxicity |
| atezolizumab: commercially available anti-PDL1 IgG1 antibody (DAR0) [reference compound] | 1.4 | – | – | – | – | – | 0.55 | – |
